What all share (test): cell-based or functional assay
Assay [1] has as its target T1, human Klotho β (human, UniProt Q86Z14 1-1044).
T1 sequence (looked up): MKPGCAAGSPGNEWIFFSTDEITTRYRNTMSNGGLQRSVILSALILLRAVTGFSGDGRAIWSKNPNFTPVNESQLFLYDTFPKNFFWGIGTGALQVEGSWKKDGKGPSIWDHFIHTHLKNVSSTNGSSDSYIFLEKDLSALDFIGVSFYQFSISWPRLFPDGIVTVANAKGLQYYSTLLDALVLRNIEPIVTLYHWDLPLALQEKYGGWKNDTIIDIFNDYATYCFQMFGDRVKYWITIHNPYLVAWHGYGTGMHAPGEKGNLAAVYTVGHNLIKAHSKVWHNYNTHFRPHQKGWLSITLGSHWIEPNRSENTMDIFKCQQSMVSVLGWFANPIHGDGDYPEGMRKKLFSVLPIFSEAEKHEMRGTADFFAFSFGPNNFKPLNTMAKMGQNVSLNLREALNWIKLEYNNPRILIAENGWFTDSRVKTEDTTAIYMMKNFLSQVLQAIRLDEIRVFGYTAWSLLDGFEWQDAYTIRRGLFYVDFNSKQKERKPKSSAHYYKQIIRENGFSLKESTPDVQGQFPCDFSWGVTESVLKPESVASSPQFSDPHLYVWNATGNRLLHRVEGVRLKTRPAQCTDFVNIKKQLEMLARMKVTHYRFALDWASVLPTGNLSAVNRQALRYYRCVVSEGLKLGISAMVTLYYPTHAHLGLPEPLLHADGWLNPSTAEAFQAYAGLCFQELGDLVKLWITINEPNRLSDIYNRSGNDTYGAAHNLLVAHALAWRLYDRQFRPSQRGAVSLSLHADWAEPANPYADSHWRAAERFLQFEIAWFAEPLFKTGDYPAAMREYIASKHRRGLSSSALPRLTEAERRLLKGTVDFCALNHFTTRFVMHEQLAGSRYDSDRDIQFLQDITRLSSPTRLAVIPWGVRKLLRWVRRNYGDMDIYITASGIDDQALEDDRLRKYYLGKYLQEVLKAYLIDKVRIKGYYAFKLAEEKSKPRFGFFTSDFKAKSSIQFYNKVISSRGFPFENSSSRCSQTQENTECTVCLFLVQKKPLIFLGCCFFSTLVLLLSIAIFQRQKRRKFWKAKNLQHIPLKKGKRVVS

The target of assay [2] is mouse Klotho β (mouse) (UniProt Q99N32).
For assay [3], the target named is T1, human Klotho β. The source holds these as a separate data set.

Numbering of substitutions follows the chain as printed. In names and notes the source's numbering stands.

mouse Klotho β (mouse), sequence (Q99N32 whole entry): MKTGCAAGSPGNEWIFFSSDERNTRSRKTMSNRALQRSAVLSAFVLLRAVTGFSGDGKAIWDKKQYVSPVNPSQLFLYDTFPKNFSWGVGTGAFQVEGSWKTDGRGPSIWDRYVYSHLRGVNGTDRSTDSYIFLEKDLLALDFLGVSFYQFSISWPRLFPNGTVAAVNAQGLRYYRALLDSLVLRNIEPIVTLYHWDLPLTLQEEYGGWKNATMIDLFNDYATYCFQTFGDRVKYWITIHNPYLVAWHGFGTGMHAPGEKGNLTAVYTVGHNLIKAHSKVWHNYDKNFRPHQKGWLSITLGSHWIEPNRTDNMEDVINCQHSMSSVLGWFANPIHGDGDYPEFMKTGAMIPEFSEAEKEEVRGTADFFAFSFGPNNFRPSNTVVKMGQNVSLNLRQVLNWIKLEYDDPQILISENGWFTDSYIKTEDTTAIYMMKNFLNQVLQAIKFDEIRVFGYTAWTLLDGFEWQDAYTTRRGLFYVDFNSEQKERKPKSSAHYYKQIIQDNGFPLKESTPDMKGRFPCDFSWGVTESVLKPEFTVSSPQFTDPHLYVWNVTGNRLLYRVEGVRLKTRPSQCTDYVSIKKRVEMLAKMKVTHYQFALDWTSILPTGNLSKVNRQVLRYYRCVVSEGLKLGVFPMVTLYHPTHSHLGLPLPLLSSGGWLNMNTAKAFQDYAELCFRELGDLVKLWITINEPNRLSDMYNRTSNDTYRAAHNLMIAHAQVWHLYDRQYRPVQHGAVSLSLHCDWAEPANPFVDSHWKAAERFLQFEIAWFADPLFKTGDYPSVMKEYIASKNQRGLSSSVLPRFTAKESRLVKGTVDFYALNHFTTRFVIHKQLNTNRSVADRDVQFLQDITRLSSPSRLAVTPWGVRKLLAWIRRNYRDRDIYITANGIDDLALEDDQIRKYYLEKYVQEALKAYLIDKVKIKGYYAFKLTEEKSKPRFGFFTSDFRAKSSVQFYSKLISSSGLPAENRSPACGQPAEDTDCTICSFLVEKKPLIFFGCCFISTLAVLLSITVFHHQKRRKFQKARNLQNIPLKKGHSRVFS

For “FGF19 (from UniProt O95750 25-216) (ligand)”, in assay [1], the % maximal activity, Erk1/2 phosphorylation in 293T HEK hKLB cells (FIG. 9B) was 27%; the EC-50 of Erk1/2 phosphorylation in 293T HEK hKLB cells (FIG. 9B) came to 148 nM; the potency (agonism) in cells that overexpressed human KLB (FIG. 11A) came to 65.8. The molecule further had a potency (agonism) in cells that overexpressed mouse KLB (FIG. 11B) in assay [2] of 25.7.

B1: FGF21-19 K194A (ligand)
chain: HPIPDSSPLLQFGGQVRQRYLYTDDAQQTEAHLEIREDGTVGGAADQSPESLLQLKALKPGVIQILGVKTSRFLCQRPDGALYGSLHFDPEACSFRELLLEDGYNVYQSEAHGLPLHLPGNKSPHRDPAPRGPARFLPLPGLPPALPEPPGILAPQPLETDSMDPFGLVTGLEAVRSPSFEA
For B1, the “potency as agonist relative to native FGF21” value in assay [3] is around 5 fold.

B2: FGF21 (ligand)
chain: HPIPDSSPLLQFGGQVRQRYLYTDDAQQTEAHLEIREDGTVGGAADQSPESLLQLKALKPGVIQILGVKTSRFLCQRPDGALYGSLHFDPEACSFRELLLEDGYNVYQSEAHGLPLHLPGNKSPHRDPAPRGPARFLPLPGLPPALPEPPGILAPQPPDVGSSDPLSMVGPSQGRSPSYAS
For the molecule B2, in assay [3], the “% maximal activity, Erk1/2 phosphorylation in 293T HEK hKLB cells (FIG. 9A)” value (“% maximal activity … (FIG. 9A)” for short) is 100%.

B3: FGF21 P171A (ligand)
chain: B2 chain with P171A
Consider B3, for which the “% maximal activity … (FIG. 9A)” value in assay [3] came to 100%.

B4: FGF21 D164A (ligand)
chain: B2 chain with D164A
In the case of B4, in assay [3], the “% maximal activity … (FIG. 9A)” value was found to be 6%.

The record behind these values is patent publication US20190142963A1 (INDIANA UNIVERSITY RESEARCH AND TECHNOLOGY, published 2019).
